Assay results published in patent US20260167699A1 (Chugai, published 2026).

B1: GpH7-A5/GpH7-B3 variant H268_20W/GpL16-k0 (antibody, human IgG1, kappa)
heavy 1: not shown
heavy 2: not shown
light: DIVMTQSPLSLPVTPGEPASISCQASESLVHSNRNTYLHWYLQKPGQSPQLLIYKVSNRFSGVPDRFSGSGSGTDFTLKISRVEAEDVGVYYCSQNTHVPPTFGQGTKVEIERTVAAPSVFIFPPSDEQLKSGTASVVCLLNNFYPREAKVQWKVDNALQSGNSQESVTEQDSKDSTYSLSSTLTLSKADYEKHKVYACEVTHQGLSSPVTKSFNRGEC
notes: copies: 1 + 1 + 2
B2: GpH7-A5/GpH7-B3 variant H268_09D/GpL16-k0 (antibody, human IgG1, kappa)
heavy 1: not shown
heavy 2: not shown
light: B1 light
notes: copies: 1 + 1 + 2
B3: GpH7-A5/GpH7-B3 variant I332_02A/GpL16-k0 (antibody, human IgG1, kappa)
heavy 1: not shown
heavy 2: not shown
light: B1 light
notes: copies: 1 + 1 + 2
B4: GpH7-A5/GpH7-B3 variant E269_19Q/GpL16-k0 (antibody, human IgG1, kappa)
heavy 1: not shown
heavy 2: not shown
light: B1 light
notes: copies: 1 + 1 + 2
B5: GpH7-A5/GpH7-B3 variant G236_13S/GpL16-k0 (antibody, human IgG1, kappa)
heavy 1: not shown
heavy 2: not shown
light: B1 light
notes: copies: 1 + 1 + 2
B6: GpH7-A5/GpH7-B3 variant I332_08L/GpL16-k0 (antibody, human IgG1, kappa)
heavy 1: not shown
heavy 2: not shown
light: B1 light
notes: copies: 1 + 1 + 2
B7: GpH7-A5/GpH7-B3 variant H268_11K/GpL16-k0 (antibody, human IgG1, kappa)
heavy 1: not shown
heavy 2: not shown
light: B1 light
notes: copies: 1 + 1 + 2
B8: GpH7-A5/GpH7-B3 variant H268_12R/GpL16-k0 (antibody, human IgG1, kappa)
heavy 1: not shown
heavy 2: not shown
light: B1 light
notes: copies: 1 + 1 + 2
B9: GpH7-A5/GpH7-B3 variant E333_16H/GpL16-k0 (antibody, human IgG1, kappa)
heavy 1: not shown
heavy 2: not shown
light: B1 light
notes: copies: 1 + 1 + 2
B10: GpH7-A5/GpH7-B3 variant G236_07I/GpL16-k0 (antibody, human IgG1, kappa)
heavy 1: not shown
heavy 2: not shown
light: B1 light
notes: copies: 1 + 1 + 2
B11: GpH7-A5/GpH7-B3 variant G236_03V/GpL16-k0 (antibody, human IgG1, kappa)
heavy 1: not shown
heavy 2: not shown
light: B1 light
notes: copies: 1 + 1 + 2
B12: GpH7-A5/GpH7-B3 variant H268_07I/GpL16-k0 (antibody, human IgG1, kappa)
heavy 1: not shown
heavy 2: not shown
light: B1 light
notes: copies: 1 + 1 + 2
B13: GpH7-A5/GpH7-B3 variant E333_19Q/GpL16-k0 (antibody, human IgG1, kappa)
heavy 1: not shown
heavy 2: not shown
light: B1 light
notes: copies: 1 + 1 + 2
B14: GpH7-A5/GpH7-B3 variant H268_02A/GpL16-k0 (antibody, human IgG1, kappa)
heavy 1: not shown
heavy 2: not shown
light: B1 light
notes: copies: 1 + 1 + 2
B15: GpH7-A5/GpH7-B3 variant H268_10E/GpL16-k0 (antibody, human IgG1, kappa)
heavy 1: not shown
heavy 2: not shown
light: B1 light
notes: copies: 1 + 1 + 2
B16: GpH7-A5/GpH7-B3 variant H268_01G/GpL16-k0 (antibody, human IgG1, kappa)
heavy 1: not shown
heavy 2: not shown
light: B1 light
notes: copies: 1 + 1 + 2
B17: GpH7-A5/GpH7-B3 variant E333_12R/GpL16-k0 (antibody, human IgG1, kappa)
heavy 1: not shown
heavy 2: not shown
light: B1 light
notes: copies: 1 + 1 + 2
B18: GpH7-A5/GpH7-B3 variant I332_06M/GpL16-k0 (antibody, human IgG1, kappa)
heavy 1: not shown
heavy 2: not shown
light: B1 light
notes: copies: 1 + 1 + 2
B19: GpH7-A5/GpH7-B3 variant H268_13S/GpL16-k0 (antibody, human IgG1, kappa)
heavy 1: not shown
heavy 2: not shown
light: B1 light
notes: copies: 1 + 1 + 2
B20: GpH7-A5/GpH7-B3 variant E333_20W/GpL16-k0 (antibody, human IgG1, kappa)
heavy 1: not shown
heavy 2: not shown
light: B1 light
notes: copies: 1 + 1 + 2
B21: GpH7-A5/GpH7-B3 variant H268_03V/GpL16-k0 (antibody, human IgG1, kappa)
heavy 1: not shown
heavy 2: not shown
light: B1 light
notes: copies: 1 + 1 + 2
B22: GpH7-A5/GpH7-B3 variant E333_11K/GpL16-k0 (antibody, human IgG1, kappa)
heavy 1: not shown
heavy 2: not shown
light: B1 light
notes: copies: 1 + 1 + 2
B23: GpH7-A5/GpH7-B3 variant H268_06M/GpL16-k0 (antibody, human IgG1, kappa)
heavy 1: not shown
heavy 2: not shown
light: B1 light
notes: copies: 1 + 1 + 2
B24: GpH7-A5/GpH7-B3 variant H268_18N/GpL16-k0 (antibody, human IgG1, kappa)
heavy 1: not shown
heavy 2: not shown
light: B1 light
notes: copies: 1 + 1 + 2
B25: GpH7-A5/GpH7-B3 variant H268_19Q/GpL16-k0 (antibody, human IgG1, kappa)
heavy 1: not shown
heavy 2: not shown
light: B1 light
notes: copies: 1 + 1 + 2
B26: GpH7-A5/GpH7-B3 variant G236_09D/GpL16-k0 (antibody, human IgG1, kappa)
heavy 1: not shown
heavy 2: not shown
light: B1 light
notes: copies: 1 + 1 + 2
B27: GpH7-A5/GpH7-B3 variant E333_05P/GpL16-k0 (antibody, human IgG1, kappa)
heavy 1: not shown
heavy 2: not shown
light: B1 light
notes: copies: 1 + 1 + 2
B28: GpH7-A5/GpH7-B3 variant E333_06M/GpL16-k0 (antibody, human IgG1, kappa)
heavy 1: not shown
heavy 2: not shown
light: B1 light
notes: copies: 1 + 1 + 2
B29: GpH7-A5/GpH7-B3 variant H268_05P/GpL16-k0 (antibody, human IgG1, kappa)
heavy 1: not shown
heavy 2: not shown
light: B1 light
notes: copies: 1 + 1 + 2
B30: GpH7-A5/GpH7-B3 variant E269_16H/GpL16-k0 (antibody, human IgG1, kappa)
heavy 1: not shown
heavy 2: not shown
light: B1 light
notes: copies: 1 + 1 + 2
B31: GpH7-A5/GpH7-B3 variant H268_14T/GpL16-k0 (antibody, human IgG1, kappa)
heavy 1: not shown
heavy 2: not shown
light: B1 light
notes: copies: 1 + 1 + 2

biological target: T1, FcγRIIIa (human, UniProt P08637 17-208); experiment: SPR (Biacore);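 further: antibody variants captured on an SPR sensor chip, with FcγRIIIa passed over as analyte in HBS-EP+ buffer at 25 °C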
T1 construct: extracellular domain; also called 3a; FcγRIIIa extracellular domain
T1 sequence (P08637 other isoform, or with tags, fused parts or gaps): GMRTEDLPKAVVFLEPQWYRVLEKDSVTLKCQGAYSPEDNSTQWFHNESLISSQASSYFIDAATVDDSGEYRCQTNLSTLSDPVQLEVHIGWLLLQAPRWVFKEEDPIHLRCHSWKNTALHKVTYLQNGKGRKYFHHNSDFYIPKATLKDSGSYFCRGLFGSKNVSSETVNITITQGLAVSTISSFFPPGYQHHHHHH

| Binder | He/Con 3a |
| --- | --- |
| B1 | 82 % of GpH7-A5/GpH7-B3/GpL16-k0 |
| B2 | 195 % of GpH7-A5/GpH7-B3/GpL16-k0 |
| B3 | 103 % of GpH7-A5/GpH7-B3/GpL16-k0 |
| B4 | 64.3 % of GpH7-A5/GpH7-B3/GpL16-k0 |
| B5 | 60.3 % of GpH7-A5/GpH7-B3/GpL16-k0 |
| B6 | 76 % of GpH7-A5/GpH7-B3/GpL16-k0 |
| B7 | 81.6 % of GpH7-A5/GpH7-B3/GpL16-k0 |
| B8 | 76 % of GpH7-A5/GpH7-B3/GpL16-k0 |
| B9 | 106 % of GpH7-A5/GpH7-B3/GpL16-k0 |
| B10 | 55.6 % of GpH7-A5/GpH7-B3/GpL16-k0 |
| B11 | 53.8 % of GpH7-A5/GpH7-B3/GpL16-k0 |
| B12 | 84.1 % of GpH7-A5/GpH7-B3/GpL16-k0 |
| B13 | 101 % of GpH7-A5/GpH7-B3/GpL16-k0 |
| B14 | 121 % of GpH7-A5/GpH7-B3/GpL16-k0 |
| B15 | 184 % of GpH7-A5/GpH7-B3/GpL16-k0 |
| B16 | 95.7 % of GpH7-A5/GpH7-B3/GpL16-k0 |

| Binder | He/Con 3a |
| --- | --- |
| B17 | 92.2 % of GpH7-A5/GpH7-B3/GpL16-k0 |
| B18 | 92.5 % of GpH7-A5/GpH7-B3/GpL16-k0 |
| B19 | 121 % of GpH7-A5/GpH7-B3/GpL16-k0 |
| B20 | 104 % of GpH7-A5/GpH7-B3/GpL16-k0 |
| B21 | 91.4 % of GpH7-A5/GpH7-B3/GpL16-k0 |
| B22 | 97.7 % of GpH7-A5/GpH7-B3/GpL16-k0 |
| B23 | 79.5 % of GpH7-A5/GpH7-B3/GpL16-k0 |
| B24 | 103 % of GpH7-A5/GpH7-B3/GpL16-k0 |
| B25 | 113 % of GpH7-A5/GpH7-B3/GpL16-k0 |
| B26 | 66.2 % of GpH7-A5/GpH7-B3/GpL16-k0 |
| B27 | 100 % of GpH7-A5/GpH7-B3/GpL16-k0 |
| B28 | 100 % of GpH7-A5/GpH7-B3/GpL16-k0 |
| B29 | 75.6 % of GpH7-A5/GpH7-B3/GpL16-k0 |
| B30 | 50.7 % of GpH7-A5/GpH7-B3/GpL16-k0 |
| B31 | 90.3 % of GpH7-A5/GpH7-B3/GpL16-k0 |
